In assay [1] the target is T1, Muc1 mucin carrying the CA6 sialoglycotope (human, UniProt P15941 24-1255, sialylated O-linked carbohydrate carrying the CA6 epitope; positions not stated).
T1 construct: whole, on cells; Target of DS6 on CA6-positive human cell lines (flow cytometry) and in their lysates (dot blots, immunoprecipitation); also called CA6 antigen; DS6 antigen
Put plainly: flow cytometry on Caov-4 cells, apparent Kd. As to the method: (§1) Cells ([…]) were incubated, on ice for 3-4 h, with serially diluted concentrations of the DS6 antibody prepared in FACS buffer (2% goat serum, RPMI) into 96-well plates. The cells were spun down in a table top centrifuge at 1500 rpm for 5 min at 4° C. After removing the media, the wells were then refilled with 150 μl of FACS buffer. The wash step was then repeated. FITC-labeled goat anti-mouse IgG (Jackson Immunoresearch) was diluted 1:100 to FACS buffer and incubated with the cells for 1 h on ice. The plate was covered in foil to prevent photobleaching of the signal. After two washes, the cells were fixed with 1% formaldehyde and analyzed on a flow cytometer.

For assay [2], the target named is T1, Muc1 mucin carrying the CA6 …. Put plainly: flow cytometry on KB cells, apparent Kd.
Assay [3] shares this target. Put plainly: flow cytometry on Hs766T cells, apparent Kd. Here is the method: (§2) Human cell lines were obtained from the American Type Culture Collection (ATCC) with the exception of OVCAR5 (Kearse et al., Int. J. Cancer 88(6):866-872 (2000)), OVCAR8 and IGROV1 cells (M. Seiden, Massachusetts General Hospital). All cells were grown in RPMI 1640 supplemented with 4 mM L-glutamine, 50 U/ml penicillin, 50 μg/ml streptomycin (Cambrex Bio Science, Rockland, Me.) and 10% v/v fetal bovine serum (Atlas Biologicals, Fort Collins, Colo.), referred hereafter as culture media. Cells were maintained in a 37° C., 5% CO₂ humidified incubator.
as §1
(Flow cytometry measures light scatter and fluorescence of single cells or particles in a stream.)

Assay [4] shares this target. Put plainly: flow cytometry on Caov-3 cells, apparent Kd.
Assay [5] shares this target. Put plainly: flow cytometry on Caov-3 cells.
Assay [6] has the same target. Put plainly: flow cytometry on HPAC cells, apparent Kd. As to the method: as §1
The target is the same in assay [7]. The experiment in a line: flow cytometry on CaOV3 cells, apparent Kd.
Assay [8] shares this target. The experiment in a line: flow cytometry on TOV-21G cells, apparent Kd.
The target is the same in assay [9]. The experiment in a line: flow cytometry on MDA-MB-231 cells, apparent Kd. As to the method: as §2, §1
Assay [10] shares this target. Put plainly: flow cytometry on Caov-3 cells, apparent Kd. The source holds these as a separate data set.
For assay [11] the target is unchanged. Put plainly: flow cytometry on T98G cells, apparent Kd. Here is the method: as §1
Assay [12] has the same target. Put plainly: flow cytometry on Caov-3 cells, FITC anti-mouse IgG. As to the method:
The fluorescence of cell lines incubated with the DS6 primary antibody and FITC conjugated anti-mouse IgG(H+L) secondary antibodies was measured by flow cytometry.
as §1

For assay [13] the target is unchanged. Put plainly: flow cytometry on BT-483 cells, apparent Kd. As to the method:
as §1

For assay [14] the target is unchanged. The experiment in a line: flow cytometry on SU.86.86 cells, apparent Kd. As to the method: as §1
The target is the same in assay [15]. The experiment in a line: flow cytometry on WISH cells, apparent Kd. Here is the method:
as §2, §1

For assay [16] the target is unchanged. The experiment in a line: flow cytometry on BT-549 cells, apparent Kd. As to the method: as §2, §1
For assay [17] the target is unchanged. Put plainly: flow cytometry on Caov-4 cells, apparent Kd. Here is the method:
as §1
The source holds these as a separate data set.

The target is the same in assay [18]. Put plainly: flow cytometry on HeLa cells, apparent Kd.
Assay [19] has the same target. Put plainly: flow cytometry on BT549 cells, apparent Kd.
Assay [20] has the same target. The experiment in a line: flow cytometry on HeLa cells, apparent Kd. The source holds these as a separate data set.
Assay [21] shares this target. The experiment in a line: flow cytometry on TOV-21G cells, apparent Kd. Here is the method:
as §2, §1
The source holds these as a separate data set.

B1: murine DS6 anti-CA6 monoclonal antibody (antibody, IgG1, V domains shown)
VH: QAYLQQSGAELVRSGASVKMSCKASGYTFTSYNMHWVKQTPGQGLEWIGYIYPGNGATNYNQKFKGKATLTADPSSSTAYMQISSLTSEDSAVYFCARGDSVPFAYWGQGTLVTVSA
VL: QIVLTQSPAIMSASPGEKVTITCSAHSSVSFMHWFQQKPGTSPKLWIYSTSSLASGVPARFGGSGSGTSYSLTISRMEAEDAATYYCQQRSSFPLTFGAGTKLELKR
notes: Whole murine monoclonal IgG from the DS6 hybridoma (ATCC PTA-4449); the 3' heavy chain cloning primer was BamIgG1 and the light chain primer was kappa; also called DS6 antibody; muDS6
Turning to B1, the Kd in assay [1] came out at 4.04 nM; in assay [2] it was 1.11 nM; in assay [3], 2.32 nM; in assay [4] it was 5.48 nM; in assay [5], 2.02 nM; in [6] it was 23.5 nM. The Kd in assay [7] came to 5.48 nM; in assay [8], 0.307 nM; in [9] it was 1.46 nM; in [10], 5.48 nM; in assay [11], 0.177 nM; in assay [12] it was 1.85 nM. For the same molecule, the Kd in assay [13] amounted to 13.7 nM; in assay [14] it was 1.04 nM; in [15] it was 2.38 nM; in assay [16], 1.05 nM; in [17], 4.04 nM; in assay [18], 0.694 nM. Also, the Kd in assay [19] turned out to be 1.05 nM; in assay [20] it was 0.694 nM; in assay [21], 0.307 nM.
